Assay results published in patent publication US20190185570A1 (IGM BIOSCIENCES, published 2019).

Legend:
[1] = target: Fc fusion protein of Human CTLA4 (human) (UniProt P16410); assay: BLI (Fortebio), human CTLA4 Fc fusion immobilized by amine reactive chemistry
DR5 = DR5 (UniProt O14763 56-440, limits assumed); assay: cell-based or functional assay

Fc fusion protein of Human CTLA4 (human), sequence (P16410 36-161 limits assumed): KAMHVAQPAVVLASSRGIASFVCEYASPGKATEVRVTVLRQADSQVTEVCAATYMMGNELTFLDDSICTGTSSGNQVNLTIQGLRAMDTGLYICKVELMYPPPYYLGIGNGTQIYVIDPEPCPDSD

Work on “Anti CTLA4 IgG (BioLegend A3.B10.G1) (antibody)” yielded a Kd [1] of 2 nM.

B1: anti-DR5 IgM (antibody, V domains shown)
VH: EVQLVQSGGGVERPGGSLRLSCAASGFTFDDYGMSWVRQAPGKGLEWVSGINWNGGSTGYADSVKGRVTISRDNAKNSLYLQMNSLRAEDTAVYYCAKILGAGRGWYFDLWGKGTTVTVSS
VL: SSELTQDPAVSVALGQTVRITCQGDSLRSYYASWYQQKPGQAPVLVIYGKNNRPSGIPDRFSGSSSGNTASLTITGAQAEDEADYYCNSRDSSGNHVVFGGGTKLTVLG
B1 was tested, and the “cytotoxic effect, cell viability of COLO205 cells (Cell-Titer Glo), fold against the corresponding IgG” value (DR5) was over 1000 fold.
